What was measured:
Smc1 = biological target: T1, Smc1 (S. cerevisiae (budding yeast), UniProt P32908 1-1225); assay: cross-linking; CLMS with sulfo-SDA; cohesin, Tof1-Csm3 and Chl1 with or without Mrc1 at 300-350 nM, 30 °C 5 min, cross-linker 2 h at 4 °C, UV 365 nm; LC-MS/MS, 1% FDR at residue-pair level; two samples merged; details: both partners purified
T1 construct: Smc1, budding yeast; the Smc1 chain of m1; Stood in the cross-linking sample as a chain of cohesin; source: purified as part of cohesin, as previously described (Minamino et al. 2018)
T1 sequence (looked up): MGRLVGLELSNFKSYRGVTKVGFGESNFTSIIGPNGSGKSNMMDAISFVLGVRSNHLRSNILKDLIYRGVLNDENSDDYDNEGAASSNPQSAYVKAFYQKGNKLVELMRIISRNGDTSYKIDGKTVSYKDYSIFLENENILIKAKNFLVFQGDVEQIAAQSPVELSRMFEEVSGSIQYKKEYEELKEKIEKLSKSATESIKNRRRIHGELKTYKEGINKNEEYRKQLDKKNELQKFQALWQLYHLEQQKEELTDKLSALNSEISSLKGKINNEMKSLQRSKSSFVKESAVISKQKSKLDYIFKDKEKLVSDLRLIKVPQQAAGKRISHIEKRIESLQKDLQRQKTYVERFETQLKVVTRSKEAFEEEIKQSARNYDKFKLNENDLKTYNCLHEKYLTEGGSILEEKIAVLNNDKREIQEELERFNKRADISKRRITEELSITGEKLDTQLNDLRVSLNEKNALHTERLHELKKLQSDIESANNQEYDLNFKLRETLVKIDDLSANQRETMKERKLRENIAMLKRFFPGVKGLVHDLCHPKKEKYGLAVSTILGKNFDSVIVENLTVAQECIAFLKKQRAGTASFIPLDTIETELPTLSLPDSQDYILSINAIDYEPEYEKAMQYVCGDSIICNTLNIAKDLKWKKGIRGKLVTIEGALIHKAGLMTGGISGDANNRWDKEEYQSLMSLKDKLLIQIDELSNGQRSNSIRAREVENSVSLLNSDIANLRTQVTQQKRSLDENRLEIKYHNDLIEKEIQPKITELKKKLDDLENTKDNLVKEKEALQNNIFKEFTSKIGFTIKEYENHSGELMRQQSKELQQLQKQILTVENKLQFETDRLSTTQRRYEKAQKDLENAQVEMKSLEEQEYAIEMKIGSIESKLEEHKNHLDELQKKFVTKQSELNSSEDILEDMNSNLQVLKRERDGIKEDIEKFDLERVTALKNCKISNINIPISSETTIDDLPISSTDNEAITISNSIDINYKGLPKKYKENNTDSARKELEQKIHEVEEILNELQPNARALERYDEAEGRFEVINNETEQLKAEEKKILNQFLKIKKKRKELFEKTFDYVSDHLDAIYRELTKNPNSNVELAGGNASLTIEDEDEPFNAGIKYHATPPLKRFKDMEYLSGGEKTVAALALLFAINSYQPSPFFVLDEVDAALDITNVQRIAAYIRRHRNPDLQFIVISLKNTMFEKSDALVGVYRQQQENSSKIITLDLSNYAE

Scc3 = biological target: T2, Scc3 (S. cerevisiae (budding yeast), UniProt P40541 1-1150); assay: as above; details: both partners purified
T2 construct: Scc3, budding yeast; the Scc3 chain of m1; Stood in the cross-linking sample as a chain of cohesin; source: purified as part of cohesin, as previously described (Minamino et al. 2018)
T2 sequence (looked up): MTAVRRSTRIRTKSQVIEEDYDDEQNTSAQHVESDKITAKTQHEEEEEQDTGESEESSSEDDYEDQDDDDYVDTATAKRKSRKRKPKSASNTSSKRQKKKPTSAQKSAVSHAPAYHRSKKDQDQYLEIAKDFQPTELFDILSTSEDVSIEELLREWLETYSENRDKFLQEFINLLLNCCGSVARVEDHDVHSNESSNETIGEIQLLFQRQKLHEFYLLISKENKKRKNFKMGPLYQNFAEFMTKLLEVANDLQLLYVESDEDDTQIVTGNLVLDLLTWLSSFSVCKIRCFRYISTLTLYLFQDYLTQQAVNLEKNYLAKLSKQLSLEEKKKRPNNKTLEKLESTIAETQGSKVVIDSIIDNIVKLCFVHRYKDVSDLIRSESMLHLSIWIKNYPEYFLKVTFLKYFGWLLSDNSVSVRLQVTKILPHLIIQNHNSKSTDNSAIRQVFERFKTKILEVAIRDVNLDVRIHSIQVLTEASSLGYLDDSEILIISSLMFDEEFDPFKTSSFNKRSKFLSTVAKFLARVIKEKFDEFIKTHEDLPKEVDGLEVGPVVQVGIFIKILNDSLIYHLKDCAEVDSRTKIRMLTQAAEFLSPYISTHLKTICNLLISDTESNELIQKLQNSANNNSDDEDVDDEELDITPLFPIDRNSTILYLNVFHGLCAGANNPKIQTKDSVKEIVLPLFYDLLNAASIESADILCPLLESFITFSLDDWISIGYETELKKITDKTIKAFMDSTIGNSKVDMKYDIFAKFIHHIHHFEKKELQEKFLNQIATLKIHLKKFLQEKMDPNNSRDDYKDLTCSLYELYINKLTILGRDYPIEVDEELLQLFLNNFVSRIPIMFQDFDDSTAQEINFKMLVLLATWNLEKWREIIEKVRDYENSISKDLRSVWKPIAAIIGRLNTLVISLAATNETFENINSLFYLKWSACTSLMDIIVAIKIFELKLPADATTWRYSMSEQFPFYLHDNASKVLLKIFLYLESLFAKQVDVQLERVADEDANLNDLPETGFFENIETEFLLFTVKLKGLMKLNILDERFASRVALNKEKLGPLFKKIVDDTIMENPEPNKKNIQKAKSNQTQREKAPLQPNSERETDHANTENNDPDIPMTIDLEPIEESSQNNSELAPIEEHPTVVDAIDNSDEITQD

B1: Mrc1 (natural protein, S. cerevisiae (budding yeast), UniProt P25588 1-1096, looked up)
chain: MDDALHALSSLTAKKRTTTYKKVAVPILDENDNTNGNGPNDIDNPPELTGNGFLFANATLNRVKNRLEGKKAPEQNHNNGKDRSENSLPTQLISNLYDGGEELEKSEVKDNSYSEKNVSSSFTQTQRIPVSIQQDKVFNVPIHSVNDGKPTQLIKEDGLVNETSQALKTPLTTGRPGATQRIDSSGATSQTQPIKSIEPQSQIITTSSNHSNALSPKIPIIPTELIGTSPLFQSIQNRGPDTQMDVPPQTAHDEDKTQAIGIPQATHQEQKTQIDTVAQTLQDEVPHTLKIREIQSELASEDSKREKARNVEYKKPQKPIPTKKFFSKESFLADFDDSSSNEDDDIKLENAHPKPVQNDDELHENKSVELNLTDETRINEKRVPLLSSYANNLKREIDSSKCITLDLDSDSDEYGDDDMDSIKLSKDESVLPISQLSKATILNLKARLSKQNQKLSQRPNKSKDPKVDHNVLLNTLRKASRKQILDHQKEVIETKGLKLEDMAKEKEIVENLLEQEILRNKRIRQKEKRREKLEENDFQLNAHDSGSDSGSESSGFALSGNEIADYESSGSENDNRRESDSEKEDDEIILKQKKSHHVKHIINESDSDTEVEAKPKEKADESLPKRIAINLGHYGDNIGEDTDKFQETNVLDTQNIEEVMAERNTIENEVKDDVYVNEEADEAIRRQLIDKEKLQLKQKEKEHEAKIKELKKRGVTNFFEMEAEESEDEWHGIGGADGEGSDDYDSDLEKMIDDYSKNNFNPHEIREMLAAENKEMDIKMINKILYDIKNGGFRNKRAKNSLELELSDDDEDDVLQQYRLKRRELMRKRRLEIGDDAKLVKNPKSSAFFESMVEDIIEYKNPFGAEEEYNLDITSTATDLDTQDNSINVGDNTGNNEQKPVDQKNKKVIISEDFVQKSLSFLKSNNYEDFETDKELSRIQHGNDEAIEDLYTLKQNSSIKSFTNSQTDSTTSKTVNTIIDLEKRPEDEDEVENGDTSLVGVFKHPSIIKSFASRTDINDKFKEGNKTVKILKSYKTVGSSKASITYMGKTRKLIAPKRKTEGSHRYHHDHHNKKMKMKTKTKSNKLFESGQDSFDN
notes: Mrc1, budding yeast; also called Flag-tagged Mrc1; source: purified as previously described (Yeeles et al. 2017)
binding result (Smc1): binds | binding result (Scc3): binds

From publication PMC10247859, “Replisome-cohesin interactions provided by the Tof1-Csm3 and Mrc1 cohesion establishment factors” (Chromosoma, 2023)
